According to US11702666B2, “Cell-based assay for determining activity in the retinoblastoma pathway” (Medical Diagnostic Laboratories, LLC, priority 2017, dated 2023):
Where two headings read alike, the source gives them in different places.

Assays:
Rb/E2F1-Dp-1 complex [1] = experiment: CDK6 mutant activity / drug resistance in NanoBiT assay, stable cell line #11; type: cell-based, human; details: CDK6 mutants
Procedure: A linear expression cassette of mutated CDK4 or CDK6 was generated by PCR mediated overlapping extension method. A pair of forward and reverse primers containing the targeted mutations was designed. The mutated codon was located in the middle of a primer flanked by 18-21 nucleotides on each side. Two PCRs (named as PCR #1 and PCR #2 in FIG. 1) were performed using UF-CMV forward and mutated reverse primers, or mutated forward and BGH-UR primers. The PCR products were cleaned up by ExoSAP-IT® (Affymetrix) to remove unconsumed dNTPs and primers. The treated PCR products were mixed together followed by dilution with water. A second round of PCR was performed using the diluted PCR mixture, and the UF and UR primers (FIG. 1). The amplified products were gel-purified. The DNA concentration was quantitated by the optical density at 260 nm using Nanodrop. The targeted mutations were incorporated in the CDK4 or CDK6 genes during the PCR mediated overlapping extension method. The introduced mutations were confirmed by the DNA sequencing.
To examine the ability of the assay to detect variants in CDK4 or CDK6 that affect function, kinase dead mutants and COSMIC (Catalogue Of Somatic Mutations in cancer) unknown mutants were created. For comparison, hyperactive CDK4 or CDK6 mutants known to be hyperactive due to less binding to natural inhibitor p16 were also created. The mutations in CDK4 or CDK6 were created by site-directed mutagenesis. WT or mutated CDK4 or CDK6 along with the CyclinD1 and SB-Rb were co-transfected, under similar conditions as previously indicated (see FIG. 9).
Computer modeling was used to reveal the drug-binding pocket and predict drug-resistant mutants. The mutations in CDK4 and CDK6 were created by site-directed mutagenesis. WT or mutated CDK4 or CDK6 along with the CyclinD1 and SB-Rb was co-transfected into #11 cell line, under the same conditions as previously indicated. […] Dose response curves are presented on FIG. 13A and FIG. 13B. Activity of other mutants was very similar to the WT or KD.
CDK4 and CDK6 mutants with known function and unknown function taken from the COSMIC database were analyzed in the present assay and are summarized in Table 7A and Table 7B. The mutants were classified according to their activity. Table 7A and Table 7B also show the number of counts per mutant in the COSMIC database, type of cancer, and luciferase activity compared to the WT (being 100%).

CDK6 [2] = target: T1, CDK6 (Homo sapiens, UniProt Q00534, R31C); experiment: p16 activity assay with CDK6 (NanoBiT, cell line #11); type: cell-based; details: compared to WT CDK6
T1 construct: expressed in transfected cells; host or cells: HEK293 CDK4/CDK6 double-knockout cells stably expressing E2F1-Dp-1-LB (clone #11); early experiments in plain HEK293
Excerpt: (§1) We developed an assay that could measure the interaction between Rb, E2F1 and Dp-1. When the Rb and E2F1 proteins are in close proximity or in complex, a light signal is observed. For the purpose of the assay, split-luciferase complementation was used to measure the interaction between Rb and E2F1, which served as a surrogate measure of CDK4/6 activity and the ability of CDK4/6 to respond to the natural inhibitor p16. The NanoBiT assay system by Promega (Madison, Wis.; Dixon et al., 2015, ACS ChemBiol) was used in the split luciferase complementation design. FIG. 24 depicts a design of a signal system to measure p16 activity. Under basal conditions inside the cell, Rb is active and interacts with the E2F1/Dp-1 heterodimer. However, in the presence of the CDK4 or CDK6, Rb gets phosphorylated and released from the interacting complex. In the presence of the natural inhibitor p16, CDK4/6 is no longer available to phosphorylate Rb and thus promoting the Rb/E2F1-Dp-1 complex formation.
(§2) For the purpose of the current assay, the stable cell line #11 that we generated for the CDK activity assay was used and described above. HEK293 CDK DKO cells containing E2F1-Dp-1-LB was transiently transfected with CDK4/CDK6, CyclinD1, and SB-Rb. The transfected cells were then exposed to the natural inhibitor p16 (FIG. 25). […]

Rb/E2F1-Dp-1 complex [3] = details: CDK6 mutants, literature ref.; Hyper = hyperactive, KD = kinase dead; cited from earlier work
CDK4 [4] = target: T2, CDK4 (Homo sapiens, UniProt P11802); experiment: p16 activity assay with CDK4 (NanoBiT, cell line #11); type: cell-based; details: CDK4, CyclinD1, SB-Rb transfected cell line #11
T2 construct: expressed in transfected cells; host or cells: HEK293 CDK4/CDK6 double-knockout cells stably expressing E2F1-Dp-1-LB (clone #11); early experiments in plain HEK293
Excerpt: as §1
(§3) For the purpose of the current assay, the stable cell line #11 that we generated for the CDK activity assay was used and described above. HEK293 CDK DKO cells containing E2F1-Dp-1-LB was transiently transfected with CDK4/CDK6, CyclinD1, and SB-Rb. The transfected cells were then exposed to the natural inhibitor p16 (FIG. 25). When CDK4 or CDK6 is present, a decrease in activity was observed as Rb gets phosphorylated resulting in no Rb/E2F1-Dp-1 interaction. […] The data presented was a sample experiment where each condition was performed in triplicate and represented mean+SD.
(§4) The conditions of the assay were optimized by using different p16 amounts and cell numbers (FIGS. 25A and 25B). Based on the data generated, it was decided that using 0.2×10^6 cells/ml and 10 ng of p16 would be preferable.
(§5) To examine the ability of the assay to detect variants in CDKN2A that affect function, known loss of function mutants and unknown COSMIC mutants were created. Wild-type or mutated CDKN2A were prepared in a manner similar to that previously indicated. […] Therefore the p16 activity assay is capable of determining the relative activity level of p16 mutants. The data provided is in Luminescence (RLU) of a single experiment with each condition performed in triplicate and represent average+SD. Summary Table 13 reports p16 mutants tested.
(§6) In addition to check functional state of p16 mutants, p16 activity assay can be used to look at p16 inhibition response of different CDK4 and CDK6 mutants. Different response of WT CDK4 and CDK6 and hyperactive mutants of CDK4 (R24A) and CDK6 (R31C) is shown on FIG. 28. […] The p16 activity assay is so sensitive and specific that hyperactive CDK4 and CDK6 mutants can show different response to mutant p16.

CDK6 [5] = target: T3, CDK6 (Homo sapiens, UniProt Q00534); experiment: p16 activity assay with CDK6 (NanoBiT, cell line #11); type: cell-based; details: CDK6, CyclinD1, SB-Rb transfected cell line #11
T3 construct: expressed in transfected cells; host or cells: HEK293 CDK4/CDK6 double-knockout cells stably expressing E2F1-Dp-1-LB (clone #11); early experiments in plain HEK293
Excerpt: as §1, §2

Rb/E2F1-Dp-1 complex [6] = experiment: CDK4 mutant activity / drug resistance in NanoBiT assay, stable cell line #11; type: cell-based, human; details: CDK4 mutants, compared to the WT (being 100%)
How it was run: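 Wild-type or mutant CDK4/CDK6, made by overlap-extension PCR site-directed mutagenesis and sequence-confirmed, was co-transfected with CyclinD1 and SB-Rb into stable NanoBiT line #11. Loss of Rb phosphorylation raises luminescence; activity expressed as luciferase signal relative to WT (100%), with drug dose-response curves for predicted resistance mutants.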

CDK4 [7] = target: T4, CDK4 (Homo sapiens, UniProt P11802, R24A); experiment: p16 activity assay with CDK4 (NanoBiT, cell line #11); type: cell-based; details: compared to WT CDK4
T4 construct: expressed in transfected cells; host or cells: HEK293 CDK4/CDK6 double-knockout cells stably expressing E2F1-Dp-1-LB (clone #11); early experiments in plain HEK293
Excerpt: as §1, §3, §4, §5, §6

Rb/E2F1-Dp-1 complex [8] = details: CDK4 mutants, literature ref.; Hyper = hyperactive, KD = kinase dead; cited from earlier work

T2 sequence (P11802 2-303): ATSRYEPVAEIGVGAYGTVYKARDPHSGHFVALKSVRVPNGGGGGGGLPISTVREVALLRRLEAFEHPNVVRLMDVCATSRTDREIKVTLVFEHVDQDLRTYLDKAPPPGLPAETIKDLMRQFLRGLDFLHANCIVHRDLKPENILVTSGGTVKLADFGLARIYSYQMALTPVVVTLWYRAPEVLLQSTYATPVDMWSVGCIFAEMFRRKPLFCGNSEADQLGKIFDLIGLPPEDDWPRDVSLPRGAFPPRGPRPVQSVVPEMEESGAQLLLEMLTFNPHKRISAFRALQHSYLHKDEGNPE
T3 sequence (Q00534 whole entry): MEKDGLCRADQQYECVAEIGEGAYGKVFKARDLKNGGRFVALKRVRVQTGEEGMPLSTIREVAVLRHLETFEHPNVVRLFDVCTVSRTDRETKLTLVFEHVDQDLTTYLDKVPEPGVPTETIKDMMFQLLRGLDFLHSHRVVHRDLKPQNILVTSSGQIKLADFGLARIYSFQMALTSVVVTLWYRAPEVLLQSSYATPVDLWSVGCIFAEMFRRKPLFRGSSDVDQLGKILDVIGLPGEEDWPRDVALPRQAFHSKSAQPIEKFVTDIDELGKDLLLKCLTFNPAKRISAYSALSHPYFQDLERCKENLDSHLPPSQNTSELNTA
T1 sequence (Q00534 whole entry R31C): as the sequence (Q00534 whole entry) above, with R31C counted along it

## CDK6 R31C: CDK6 mutant, literature hyperactive
Rb/E2F1-Dp-1 complex [1]; compared to the WT (being 100%)
  Luc activity (/wt): 66%
Rb/E2F1-Dp-1 complex [1]; no drug
  luciferase signal compared to WT CDK6 (in words): a little bit lower basal signal than WT
CDK6 [2]
  p16 inhibition response of hyperactive CDK6 mutant (luminescence): decreased level of luminescence
Rb/E2F1-Dp-1 complex [3]
  Reported activity: Hyper

## p16: cyclin-dependent kinase inhibitor 2A, natural inhibitor of CDK4 and CDK6, encoded by CDKN2A
CDK4 [4]
  luminescence with treatment of p16: increase in luminescence
CDK6 [5]
  luminescence with treatment of p16: increase in luminescence

B1: CDK4 R24A: CDK4 mutant, literature hyperactive (protein)
chain: ATSRYEPVAEIGVGAYGTVYKAADPHSGHFVALKSVRVPNGGGGGGGLPISTVREVALLRRLEAFEHPNVVRLMDVCATSRTDREIKVTLVFEHVDQDLRTYLDKAPPPGLPAETIKDLMRQFLRGLDFLHANCIVHRDLKPENILVTSGGTVKLADFGLARIYSYQMALTPVVVTLWYRAPEVLLQSTYATPVDMWSVGCIFAEMFRRKPLFCGNSEADQLGKIFDLIGLPPEDDWPRDVSLPRGAFPPRGPRPVQSVVPEMEESGAQLLLEMLTFNPHKRISAFRALQHSYLHKDEGNPE
Rb/E2F1-Dp-1 complex [6]
  Luc. activity (/wt): 79%
CDK4 [7]
  p16 inhibition response of hyperactive CDK4 mutant (luminescence): decreased level of luminescence
Rb/E2F1-Dp-1 complex [8]
  Reported activity: Hyper
